Assay results taken from patent publication US11781164B2, “Demethylation of reticuline and derivatives thereof with fungal cytochrome P450” (priority 2017, dated 2023).

Tests used:
[1] = test system: thebaine; experiment: Bioconversion of thebaine (N-demethylation to northebaine) by S. cerevisiae expressing cytochrome P450s and CPRs, LC-MS; settings: for support of N-demethylase activity of P450_DN15259_c0_g1_i7_A by CPR (northebaine): 0.1 M potassium phosphate buffer pH 7, 72 h
[2] = test system: oripavine; experiment: Bioconversion of oripavine (N-demethylation to nororipavine) by S. cerevisiae expressing cytochrome P450s and CPRs, LC-MS; settings: for nororipavine production when oripavine was administered: co-expressed with CPR_DN5866_c0_g1_i1_Cd9, CPR_DN10898_c0_g1_i1_1A or Cel_CPR_co

B1: CPR_DN5866_c0_g1_Cd9: native cytochrome P450 reductase clone from T. piriforme, day 9 cDNA (pEV31725) (protein)
chain: MAQSSPALLDSLDIVFLGTIGLGTIAWFARRQIAERIFGSKDDANKNVGNGNAPTAPKRERNFVKVMQEQGRKVIFFYGSQTGTAEDYASRLAKECSQKYGVSCMTADIELYDLTYLDTVPEDFLVFFIMATYGEGEPTDNAVDFWEQLTEEEPQFSEGDTLGNLRYVVFGLGNKTYEHYNEVARRMDKLLTKLGAKRIGERGEGDDDASLEEDFLAWQDSMWPAFCDALGVDESNGSSGPRQAMYAVEELEGQEAVYLGELGEKPKEGVKVVYDAKRPYNAPLVSQDLFKNTDRHCLHIDIDVSDSNLSYQTGDHIAIWPTNSDDEVARLASLLGLTDKLDTSVMVKAIDSTASKQYPFPVPATYRSIFRHYLDICAPASRQTLMSLVEYAPTEASKEALRLLSKDKDEYRLKVGEAVRNLGEVLELAAGADARPGLFSTVPFDLIVESVSRLQPRYYSISSSAKESPKVIAVTAVTLTYNPDPTPERTVYGVNTNYLWQIHAAKHNVNDGQRYPTYDLAGPRNALQGAKVPVHIRRSQFKLPRNPTVPVIMVGPGTGVAPFRGFVRERAAQKTDGKPVGPTLLFFGCRNSQQDFLYKDEWPELFATLGDESRIVTAFSRETPQKVYVQHRLQENGEELWNLLQKGAYIYVCGDAKNMARDVNQTFVNFAIEFGGQTEEKAHDYVKNLRNSGRYQEDVWS
modifications: Thamnostylum piriforme
support of N-demethylase activity of P450_DN15259_c0_g1_i7_A by CPR (northebaine) ([1]; 0.1 mM thebaine, 30° C.): yielded more northebaine

B2: Cel_CPR_co: codon-optimized cytochrome P450 reductase from Cunninghamella elegans (protein)
chain: MAQQTPAVIDTLDLILLGSIGLGTIAWFTRRQLSERLFGTGQSNATPKPTTPQAPKRERNFVKVMEQQGRKVIFFYGSQTGTAEDFASRLAKQCSQKYGVSCMTADIEMYDLSYLDTLSEDSLVCFVMATYGEGEPTDNAVDFWEQFITDESPVFSEGGETLENLRYLMFGLGNKTYEHYNAVARILDKKLTGLGAKRIGERGEGDDDGSLEEDFLAWQESMWPTFCDALGVDENNAQQGPRQASYSVDELKEEYKNDDVYFGELGTKSKDSSRVVYDAKRPYNAPITTRELFNSSERHCLHVDIDISGTNLSYQTGDHVAMWPTNNEDEVLRLANILGLQDKLDNVISVKAIDPAAPKQHPFPVPTTYRAIFRHYIDICAPASRQSLMSFVEFAPTDSAKDLLKLLATDKDEYRLKVGEAVRNLGEVLELVSGNDKDTQPGSFTSVPFDLIVETIPRLQPRYYSISSSSKENSSIISATCVTLAYQPDPTPDRTVYGVNTNFLYRIHTQSSDNDIQGLPKYDLAGPRKAFLNEQGQSHKLPIHIRRSQFKLPRNTSCPVIMIGPGTGVAPFRGFVRERALQKKEGKSVGPTVLFFGNRHSEHDFLYSDEWPELFNTLGDDSKLITAFSRETEHKVYVQHRLEENGKDIWQLLEKGAYIYVCGDARNMARDVNQTFVNLAMEYGEKTEQKALDYVKSLRNTGRYQEDVWS
modifications: codon-optimized; Cunninghamella elegans
support of N-demethylase activity of P450_DN15259_c0_g1_i7_A by CPR (northebaine) ([1]; 0.1 mM thebaine, 30° C.): found to support N-demethylase activity

B3: LCOR_09548_co: codon-optimized putative cytochrome P450 A0A068S8J3 from Lichtheimia corymbifera (protein, listed as Lichtheimia corymbifera)
chain: MSSLNILSLLDNKHINAFFDNPSRAQSGIIAGSVAIVSLCAAYSLGSRLRGSNNGVPLVPYTFPIIGSTKEYQADPQAFIEKWTAKLGPVFRVHLFGRIHTVVSDRYVREVFLNNDFDFLKGTGKRFDTLLLTDTTLEDVDIEVFRTVVMKHLTKEMKHYTPRVVEHLTAGGDEKLGDATEPKELVHLFPLLQHMVAKASASIFVGTELAADDAVVETCKNIAIDIGSELGPSSYIMDAFPSLARLRMWYIGKYGKAINKHRQHLLHALGPVIDKRLAAAEKGGDWDRPQDILQDIIETINLTLDNPKRHILPVKWLLALFFASIHTTSENSTIVLYRIMQNPEIIDVLLEEQNEILEKHYGTNIDYSDTTKLFTGEVIKEMVKLDSVCREAMRSRNSYLELPHTYVGKSRITLSCGAVIEPGHDVLINMWGNHRDAKIQRDTIGDHHDFKPFRFVGLDRQSTKIGDDFLMFGQGRHACPGRWFAIQEIKTIVSVLIRYYKLTPKGPITFPTHPRMPMPTGEVIIQRRQE
modifications: codon-optimized
nororipavine production when oripavine was administered ([2]; 0.5 mM oripavine, pH 7, 72 h): capable of producing nororipavine

B4: P450_DN12791_c0_g1_C: native cytochrome P450 clone from Thamnostylum piriforme (plasmid pEV31522) (protein)
chain: MAILQNLVLQSDQRHLGVVTAAVFLSAYALYRHESKKELGNECPTVPYTNPMFGSTDEYRKNPAAFVEKWSAALGPVFRVHIFGRMQTVVSGRYVREVLFNDNFSFVEGIRTRFDLRLLTGIPNSHLNDKDVREVVVKSLTAQMKKYTPRAVHYLSVGLQEALGDLKDPRTLDNLFLTVQNMVAKASASIFVGEELCNNIELVDTFKHVTSDIGSEIRLDNTWLEFFKTINQIRMWYVGKHSPRVTKHRRQLIQAMAPEIDRRLQGLAGNDPSWTRPEDILQEIMENYPSPSTVPADIYTYYANWMIVLIFASVHTTTEHATIVLYRLLQQPELIDELLQEQKEALGQGTVFTGEVIRKLVKLDSVCRESLRIKNEYFGLPHRNMSHENISLSNGVVIKPGDNVMLNVWTNHHDSDLQKDVHGNHDKFEPFRYVNADRPATKIGDDYLIFGEGKHACPGRWFALQEIKTIVSVLIRDYTLTPCGPIVFPSGTSTGIPSGEVTIQRKSEV
modifications: Thamnostylum piriforme
nororipavine titers ([2]; 0.5 mM oripavine, pH 7, co-expressed with Cel_CPR_co, 72 h): highest nororipavine titers
oripavine N-demethylation (nororipavine), screening of T. piriforme P450 candidates ([2]; 0.5 mM oripavine, pH 7, with CPRs from C. elegans, G. fujikuroi and S. cerevisiae, 72 h): identified as an oripavine N-demethylase

B5: CPR_DN10898_c0_g1_1A: native cytochrome P450 reductase clone from T. piriforme (pEV31730) (protein)
chain: MSKKPTTFAISPLDLLLLGTLGIGALLYITRKLRAAPPPAAGDAARPSDKAPSNKPERNFVKLMEQQKRRVIFFYGSQTGTAEDYASRLAKESSQKYGVSSMAADIELYDLSYLDTVPEDKLVVFVMATYGEGEPTDNAVDFWETLTDEAPMFSLGEELAPLRNLNYIVFGLGNKTYEHYNEVARVLDKRLAALGATRHGVRGEGDDDASLEEDFLAWQEDMWPAFCAALNVDESNAQAGPRQAMYGVKELEGHDENGLFLGELGEWLQPEQLQKQTAVHDAKHPYLAPIAASRDLFSHAADRHCLHLEVDIASSNLTYQTGDHIAIWPTNNDVEVLRLATVLGLADKLDTAIMVKALDSAASKKYPFPVPTTYRAAFKHYLDICSPASRQTLISLVDYAPTASSKDALHKLATDKDAYKTQVSEAARNLAEVLELCQDDEGTTAAPGFFSTVPFDLIVESVSRLQPRYYSISSSSLTSPKSVAVTAVTLSYQPSTTKSRTVYGVNTNYLWRIHAPHDASVPAYDLDGPRNTLQGKKVPVHIRRSTFKLPRNTKLPVIMVGPGTGVAPFRGFIHDRVHQKQSGKEVGPTVLFYGCRHSKQDFLYAEEWPALFEALGEGSQLITAFSRESAQKVYVQHRLKEHGEQMWKYIEQGAYIYVCGDAKNMARDVQQTFIEFAQALGNKTESQAQDYVKNLRNTGRYQEDVWS
modifications: Thamnostylum piriforme
support of N-demethylase activity of P450_DN15259_c0_g1_i7_A by CPR (northebaine) ([1]; 0.1 mM thebaine, 30° C.): yielded more northebaine

B6: P450_DN15259_c0_g1_i7_A: native cytochrome P450 clone from Thamnostylum piriforme (plasmid pEV31541) (protein)
chain: MDNKAILRQAVYSYRYHIGIAAAVAIVCQQIYSRVFRVPKNLRHIPAISYWSQMKALLKKEAITPRTKRLVYPLLSKANGLYLNRMPFDWTVYVANPMIAKTVLFKPEFATKMSLIGSFSDDSAVLQFVGKDNIAVSNGHQWKKQRKIMNPAFHRSMPVALFASLMPKVFCMIDETQENGDSVGAIQLMQALTLEALGKAVFGFDFGGLDDKNSVWVKTYNEVFKAFTDFTVFLPRLNAFLRRVSPPHRSRHREMLKLIGLLDEMVDKKRQALLDAKNKSVEKVPEHEKDLLTLMLEAEMDGEGVWEKEELRHNIGILFVAGHDTTANSLAFAVYNLAVNKDVQDKARKEIIDLLGDEPKDVAPTLDDCKHMDYIDMIIKETLRMNAPANDLLARIASEDLELGGVLIPKGTMVSVDFHALHLHPDLWEDSERFNPQRFQDNGEHSKHEGVTWVPFSGGSRQCIGINFSMMEQRVALSTLLRKYEWELPADSIHRNGLVMDQPFSFAPSSLKIKFKKRY
modifications: Thamnostylum piriforme
thebaine N-demethylation (northebaine), screening of T. piriforme P450 candidates ([1]; 0.1 mM thebaine, non-buffered SC-His-Leu-Ura, with CPRs from C. elegans, G. fujikuroi and S. cerevisiae, 72 h, 30° C.): identified as a thebaine N-demethylase
increase in northebaine titers on increasing thebaine concentration to 0.5 mM ([1]; 0.1 vs 0.5 mM thebaine, pH 7, 72 h, with Cel_CPR_co, CPR_DN5866_c0_g1_Cd9 or CPR_DN10898_c0_g1_1A): 50%
oripavine N-demethylation (nororipavine) ([2]; detected only when feeding 0.5 mM oripavine, pH 7, 72 h, with Cel_CPR_co, CPR_DN5866_c0_g1_Cd9 or CPR_DN10898_c0_g1_1A): able to N-demethylate oripavine
nororipavine titers lower than those of northebaine ([2]; thebaine or oripavine fed, pH 7, 72 h): 20 fold

B7: LCOR_01865_co: codon-optimized putative cytochrome P450 A0A068RKI7 from Lichtheimia corymbifera (protein, listed as Lichtheimia corymbifera)
chain: MTEIKDHIYRYRHYIGVAAAVLLVCQQVYHRIFRIPKNLRHLPAIPYGKQLKALQSQENLISRTQRLVFPLLPKAHGVYLNRMPFQWTIYVADPEIARIVFFKPEFANKTSSVLDSIDQNTTLIEFVGNDNVSIVNGHHWKDQRKIMNPAFHRATPVGMFGSLMPKVFRLVEEQPTVPVLELMQKLTLDALGKSVFGFDFGGLDDPDSVWVKTYRLLFDGFTNVIPLVFPRLDGLYRYFSAKRRAQHDAVYKLIDLLDGVADKKRSMLQDDSNSHNDVPEHEKDLLQLMLEAELRGEGNWTKKELRHNMAIFFVAGHDTTSHALTFCLYLLAMNQDIQKKAREEILRVLGDEPKDVFPTLEDCKKLDYLDMVIKESMRIYPPANDILARDVHEDLNVKGIFIPKGAMVSVDIQALHHRPDLWHEPEKFNPDRFLPGGEHDSHEGIAYAPFSSGARQCIALKFSIMQQRVVLAMLLRKFEWELPKESKHKDGIQFEIPFNLAPKDLELIFHKRY
modifications: codon-optimized
activity towards thebaine, converting it to northebaine ([1]; 0.5 mM thebaine, pH 7, 72 h, co-expressed with CPR_DN5866_c0_g1_i1_Cd9, CPR_DN10898_c0_g1_i1_1A or Cel_CPR_co (at least one of the tested CPRs)): displayed activity towards thebaine
nororipavine production when oripavine was administered ([2]; 0.5 mM oripavine, pH 7, 72 h): capable of producing nororipavine
